These results are taken from the RNAGym collection of RNA variant scans (doi:10.7554/elife.90254).

Sequences and labels used below:
B1: LINE1-full (parent)
chain: UACGUAGGUGGUUUUCCCCUGAUAGUGCUAAGGGGGCCUGGAAGUUUGGACUGGGCAGAGCUCAACACAGCGUGGCAAAGUGGCUGUGGCUAGACUGCCUCUCUGGAUUCCUCGUCACUCAGCAGGGCAUCUCUGAGAGAAAUGCC

In the data set the parent is B1. As to the kind of experiment: self-cleavage, relative activity (ratio to wild type); higher = more cleavage; in vitro, sequencing; the parent is a self-cleaving ribozyme.
U62A U130C: the self-cleavage amounted to 0.05.
Next, A64U U104C: 0.62; U62C U91A: 0.08.
Consider U62C U91C, for which the self-cleavage amounted to 0.04.
Consider C63U C123U, for which the self-cleavage was 0.38.
With A64G G82A, the self-cleavage was determined as 0.19.
Take C63U A94G: the self-cleavage stood at 0.06.
For U62A G127U, the self-cleavage stood at 0.02.
For the variant U62C A138G, the self-cleavage was determined as 0.06.
Next, U62C C71U: 0.05; A64U U73C: 0.58; A64U U73A: 0.21.
Next, C61U U102C: 0.03.
The same measure for C61U A67G: 1.08; for A65G A94G: 0.03.
Regarding U62C U73C, the self-cleavage was 0.07.
Consider A64U U119A, for which the self-cleavage came out at 0.34.
The same measure for U62A A67U: 0.06; for U62A A67G: 0.07.
As for U62G A129G, the self-cleavage came out at 0.15.
For the variant A64G G114U, the self-cleavage is 0.24.
With A64U G74A, the self-cleavage turned out to be 0.3.
In the case of A64U G106U, the self-cleavage stood at 0.34.
For the variant C61U U134G, the self-cleavage came to 0.
The same measure for A64U C68A: 0.01; for A64C A129G: 0.51; for A64C A129U: 0.14.
For U62C A64G, the self-cleavage amounted to 0.08.
A64G U119C: the self-cleavage amounted to 0.32.
For the variant A64U A107G, the self-cleavage was 0.45.
As for U62C A69G, the self-cleavage stood at 0.06.
Next, C63A U108C: 0.08; C63A U119C: 0.02; C63U C90U: 0.
On to A64U C95U, for which the self-cleavage was found to be 0.07.
As for A64U A79U, the self-cleavage was determined as 0.64.
Next, C61U U119C: 0.05; A64U U130A: 0.62.
Next, U62A U81G: 0.02.
In the case of A64U C123U, the self-cleavage was 0.41.
As for A64U U132A, the self-cleavage turned out to be 0.07.
Regarding U62A U96A, the self-cleavage was found to be 0.04.
In the case of U62A U96C, the self-cleavage turned out to be 0.06.
For the variant C63U C128U, the self-cleavage was 0.23.
For the variant C61U C76U, the self-cleavage was 0.04.
With A64U U112A, the self-cleavage is 0.47.
The same measure for U62A A121G: 0.06.
A64G A78G: the self-cleavage amounted to 0.25.
A64U U81G: the self-cleavage came to 0.4.
C63U G74A: the self-cleavage amounted to 0.22.
Turning to U62C U100A, the self-cleavage was determined as 0.05.
On to A64G U112C, for which the self-cleavage was determined as 0.28.
As to A64G U112G, the self-cleavage amounted to 0.
On to A64U A129U, for which the self-cleavage was found to be 0.46.
Regarding A64U A129G, the self-cleavage stood at 0.66.
For A64C U100C, the self-cleavage was determined as 0.62.
Turning to A64G, the self-cleavage came to 0.25.
For A64U, the self-cleavage was determined as 0.41.
A64C: the self-cleavage was found to be 0.35.
U62C A79G: the self-cleavage is 0.06.
Take U62C A79U: the self-cleavage was 0.03.
C63A: the self-cleavage was determined as 0.06.
On to C63U, for which the self-cleavage was determined as 0.36.
The same measure for C63G: 0.09; for A64C A79G: 0.28.
Consider A64C A140G, for which the self-cleavage came to 0.24.
The same measure for A64U U87G: 0.11; for A64U U87A: 0.06.
Turning to U62C A141G, the self-cleavage was 0.03.
For the variant A64U U134C, the self-cleavage is 0.51.
Next, A64U U134A: 0.16; A64C A94G: 0.14.
With A64G U91C, the self-cleavage amounted to 0.07.
Regarding U62A U102A, the self-cleavage turned out to be 0.01.
Consider U62A U102C, for which the self-cleavage amounted to 0.01.
For U62A U102G, the self-cleavage was 0.08.
On to U62A U112A, for which the self-cleavage was 0.05.
As for U62A U112C, the self-cleavage was 0.04.
Take A64C U85C: the self-cleavage was 0.02.
In the case of A65C U143C, the self-cleavage worked out at 0.06.
Consider U62C C111U, for which the self-cleavage amounted to 0.02.
Consider A65G A79G, for which the self-cleavage came to 0.09.
In the case of C63U U109A, the self-cleavage stood at 0.12.
Turning to U62C U143G, the self-cleavage was determined as 0.08.
Take A64G U81A: the self-cleavage was determined as 0.34.
Regarding U62C C128A, the self-cleavage was determined as 0.05.
Take U62C U130A: the self-cleavage stood at 0.07.
With U62C C66U, the self-cleavage was determined as 0.03.
Regarding A64G A117U, the self-cleavage is 0.26.
For C63A U100C, the self-cleavage was 0.04.
Take U62C A124G: the self-cleavage was determined as 0.08.
The same measure for A64C U143A: 0.25; for A65G A124G: 0.07; for U62C U81A: 0.04.
Turning to U62C U81C, the self-cleavage was 0.05.
For the variant A64G U96A, the self-cleavage stood at 0.07.
With C63A U87A, the self-cleavage amounted to 0.04.
With C63A U87C, the self-cleavage came to 0.06.
As to U62A U73A, the self-cleavage amounted to 0.04.
Take U62C G82A: the self-cleavage amounted to 0.04.
As for A64U C71U, the self-cleavage is 0.37.
A64G G89U: the self-cleavage was determined as 0.
On to A64C A142G, for which the self-cleavage worked out at 0.25.
The same measure for A64C A142U: 0.37; for C63U A77G: 0.62.
On to A64G U132A, for which the self-cleavage was 0.34.
The same measure for A64G U132C: 0.39; for U62C U102C: 0.06.
The same measure for C63U A129U: 0.54; for A64U G126A: 0.37.
As for A64U U115A, the self-cleavage was determined as 0.57.
For the variant A64G G72A, the self-cleavage turned out to be 0.19.
Regarding A64G G72U, the self-cleavage was found to be 0.12.
Take U62C G139A: the self-cleavage is 0.03.
On to A65G A117G, for which the self-cleavage amounted to 0.08.
The same measure for U62A A79G: 0.04; for A65C U119A: 0.
For the variant U62C C103U, the self-cleavage stood at 0.03.
In the case of A64C A78U, the self-cleavage is 0.46.
For A64C A69G, the self-cleavage was 0.35.
With U62A A77G, the self-cleavage is 0.07.
As for U62A A77U, the self-cleavage turned out to be 0.01.
For C63A A77G, the self-cleavage was 0.04.
Next, A64G U87A: 0.07; A64G U87G: 0; A64G C131U: 0.33.
With A65G A107G, the self-cleavage is 0.03.
As for A64G C133U, the self-cleavage worked out at 0.06.
In the case of U62C U85C, the self-cleavage was found to be 0.05.
Regarding U62C U85A, the self-cleavage was 0.03.
Regarding C63A G97A, the self-cleavage is 0.01.
Take U62A U132C: the self-cleavage amounted to 0.06.
For U62G U115C, the self-cleavage was determined as 0.
Next, U62C A140G: 0.04; U62C A78U: 0.04.
With U62C A78C, the self-cleavage came out at 0.
Regarding U62C A78G, the self-cleavage was 0.05.
Consider U62C U112A, for which the self-cleavage came to 0.05.
U62C U112G: the self-cleavage turned out to be 0.
With C63U U81C, the self-cleavage stood at 0.4.
In the case of U62A U87A, the self-cleavage worked out at 0.04.
Take U62C C101A: the self-cleavage turned out to be 0.04.
U62C C101U: the self-cleavage was determined as 0.07.
As for U62C G105A, the self-cleavage came to 0.03.
Consider A64C U130C, for which the self-cleavage amounted to 0.
On to A64U A124U, for which the self-cleavage was found to be 0.38.
A64U A124G: the self-cleavage was 0.3.
Consider U62C A136G, for which the self-cleavage amounted to 0.06.
Turning to A64G U104A, the self-cleavage is 0.32.
C63U A140G: the self-cleavage was 0.25.
As for A64G A65G, the self-cleavage was determined as 0.11.
On to C61U A94G, for which the self-cleavage is 0.06.
On to U62C U96G, for which the self-cleavage is 0.
Turning to U62C U96A, the self-cleavage worked out at 0.03.
Consider U62G U104C, for which the self-cleavage is 0.08.
Consider U62G C113U, for which the self-cleavage worked out at 0.1.
As for U62C A117C, the self-cleavage came out at 0.03.
Take U62C A117U: the self-cleavage was 0.03.
Take U62C A117G: the self-cleavage was 0.1.
For U62C G93A, the self-cleavage came out at 0.06.
As for C63U U85G, the self-cleavage turned out to be 0.1.
Regarding C63U U85C, the self-cleavage is 0.08.
As for A65G A77G, the self-cleavage was 0.04.
As to U62A U108C, the self-cleavage was determined as 0.04.
Next, A64G A142G: 0.25.
On to C63U A136G, for which the self-cleavage was found to be 0.34.
The same measure for U62A A107G: 0.06.
